How the values were obtained:
HIV-1 BaL [1] = assay: Viral synergy study, HIV-1 BaL replication in PM-1 cells (gp120 ELISA); assay type: cell-based; details: 12p1 16-31 μM
Protocol: The curves are also shown for the dose response expected if the effects were simply additive.
Viral replication was determined by gp120 ELISA after a seven day incubation.
Dilutions and cells were in RPMI supplemented with 10% fetal calf serum, pen, strep and glutamine. Cells were incubated for 7 days and viral replication determined by gp120 ELISA. Each condition was performed in sextuplet and the mean used to calculate IC50 values. Analysis of combined effects was also carried out using the median effect principle developed by Chou and Talalay^39,40, and using the computer program CalcuSyn (BioSoft).

HIV-1YU2 gp120 = HIV-1YU2 gp120 (Human immunodeficiency virus type 1 group M subtype B, UniProt P35961); details: at 300 nM, about 250 RUs gp120 immobilized
Protocol: Approximately 250 RUs of either YU2 gp120 or the non-specific control antibody 2B6R were immobilized to a CM5 dextran chip by amine coupling. […] Signals from the reference 2B6R flow cell were used to correct for non-specific interactions and bulk effects (FIGS. 4A, B).
All surface plasmon resonance studies were performed on a Biacore 3000 (Biacore Inc., Uppsala, Sweden). CM5 dextran chip was derivatized by amine coupling with 250 RUs of YU2 gp120 or 2B6R (anti-IL5 receptor βchain) IgG as a control surface. […] Surfaces were regenerated with multiple short pulses of 10 mM glycine HCl, pH 1.7.

[2] = system: gp120s from a variety of strains of HIV-1 of diverse clades and tropisms; assay: ELISA binding to gp120 of a variety of clades and tropisms; details: 50 nM, 100 ng gp120
Source text: Bars represent triplicate determination after the subtraction of non-specific binding to BSA. Error bars indicate one standard deviation.
We therefore tested the ability of the chimera to bind to the gp120s from a variety of strains of HIV-1 of diverse clades and tropisms.

YU2 gp120 / mAb 2G12 = YU2 gp120 / mAb 2G12 (Human immunodeficiency virus type 1 group M subtype B, UniProt P35961); details: ELISA, 50 μg/ml 2G12
Source text: Monomeric HIV-1YU2 gp120 was adsorbed onto ELISA plates overnight prior to blocking with 1% BSA.
This antibody recognizes the conformationally-flexible, CD4-unliganded form of gp120^53.

YU2 gp120 / mAb 17b [3] = target: T1, YU2 gp120 / mAb 17b (Human immunodeficiency virus type 1 group M subtype B, UniProt P35961); details: ELISA, 2 μg/ml 17b
YU2 gp120 / mAb F105 = target: T2, YU2 gp120 / mAb F105 (Human immunodeficiency virus type 1 group M subtype B, UniProt P35961); details: from literature; cited from earlier work
T2 construct: made in house; host or cells: gp120: Drosophila S2 cells

SHIV89.6P = details: cited from earlier work
[4] = system: SIV/HIV-1 virus SHIV89.6P; details: gel formulations applied rectally, male macaques; cited from earlier work
HIV-1 BaL [5] = details: recombinant CVN; cited from earlier work
YU2 gp120 = YU2 gp120 (Human immunodeficiency virus type 1 group M subtype B, UniProt P35961); details: read-out: Equilibrium dissociation constant KD for binding to YU2; cited from earlier work
[6] = target: gp120 of HIV-1 JRFL and HIV-1 89.6; details: cited from earlier work
YU2 gp120 / mAb 17b [7] = target: T1, YU2 gp120 / mAb 17b; details: from literature; cited from earlier work

Molecule | Inhibitory effect on viral replication alone (HIV-1 BaL [1]) | Biosensor signal on immobilized YU2 gp120 (HIV-1YU2 gp120) [RU] | Binding to gp120s of diverse strains in ELISA [2] | Competition of gp120 binding to 2G12 antibody (YU2 gp120 / mAb 2G12) | Effect on interaction between 17b and gp120 (YU2 gp120 / mAb 17b [3]) | Effect on F105 binding to gp120 (YU2 gp120 / mAb F105) | Clinically adverse effects in in vivo assays (SHIV89.6P; macaques, gel) | CVN treated macaques not infected (SHIV89.6P; vaginal gel, SHIV89.6P challenge, controls 8 of 8 infected) | Protection against rectal challenge [4] | Cytotoxic effects in ectocervical explants (HIV-1 BaL [5]) | Infection of human ectocervical explants (HIV-1 BaL [5]) | Kd (YU2 gp120) [nM] | Affinity (KD) of interaction with gp120 [6] | Effect on 17b-gp120 interaction (YU2 gp120 / mAb 17b [7])
RINNIPWSEAMM [12p1] | only small inhibitory effect | – | – | – | – | – | – | – | – | – | – | – | – | –
CVN: 11 kDa protein originally isolated from the cyanobacterium Nostoc ellipsosporum, binds high mannose oligosaccharides of gp120 (protein) LGKFSQTCYNSAIQGSVLTSTCERTNGGYNTSSIDLNSVIENVDGSLKWQPSNFIETCRNTQLAGSSELAAECKTRAQQFVSTKINLDDHIANIDGTLKYEHHHHHH | – | 95 | behaved equivalently with all strains tested | show the expected competition | neither CVN nor L5-S12p1 had any effect | minimal effect | no clinically adverse effects | 15 of 18 | protected against challenge | no cytotoxic effects | blocked HIV-1 BaL infection | 11 | in the nM KD range | cannot inhibit this interaction
